FireProtDB (doi:10.1021/bi00009a043)
Values joined by “and” are separate entries in the source; they are usually repeats but may differ in a detail not shown here. Identical values can stand only once.

Details: Danio rerio; pH 8; Thermal; DSC; Tris 20 mM; KCl 0.6 M; transition: 3; reversible: no

Chain of Tropomyosin alpha-1 chain wild type, P13104 (P13104 whole entry): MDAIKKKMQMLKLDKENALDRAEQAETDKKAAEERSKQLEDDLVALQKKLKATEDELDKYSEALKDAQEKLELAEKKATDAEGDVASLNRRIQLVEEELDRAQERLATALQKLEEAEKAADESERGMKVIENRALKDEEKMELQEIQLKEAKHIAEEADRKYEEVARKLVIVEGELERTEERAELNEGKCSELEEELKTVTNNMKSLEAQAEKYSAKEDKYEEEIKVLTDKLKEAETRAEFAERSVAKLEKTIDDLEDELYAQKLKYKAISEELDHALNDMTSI

Tropomyosin alpha-1 chain wild type, P13104
unfolding enthalpy (van 't Hoff): 118 kcal/mol and 124 kcal/mol and 151 kcal/mol
